{"source": "paper PMC11363321", "tested_on": "Deoxymab-3 (DX3), humanized 3E10 antinuclear IgG1 (humanized (3E10 CDRs from MRL/lpr mouse on human IgG1 framework))", "test": "SPR", "conditions": "1:1 kinetic fit, SPR Biacore T200, CM5 chip with neutravidin, biotinylated ssDNA (0.025 uM) immobilized, DX3 in PBS pH 7.4, contact 120 s, dissociation 400 s, temperature not …", "note": "pKd: −log10 of the molar value.", "data": [{"substance": "30-mer single-stranded DNA oligonucleotide", "values": [{"measurement": "pKd", "setting": "experiment 1, DX3 titrated from 500 nM", "value": 6.95}, {"measurement": "pKd", "setting": "experiment 2 (replicate)", "value": 6.95}]}]}
